{"source": "paper PMC4381594", "about": "“GCN5 inhibits XBP-1S-mediated transcription by antagonizing PCAF action” (Oncotarget, 2014)", "key": {"[1]": {"molecular_target": "T1, XBP-1S, the active isoform of X-box binding protein 1 (human, UniProt P17861-2 1-376)", "T1 construct": "source: 293T, transfected, in lysate", "T1 sequence (looked up)": "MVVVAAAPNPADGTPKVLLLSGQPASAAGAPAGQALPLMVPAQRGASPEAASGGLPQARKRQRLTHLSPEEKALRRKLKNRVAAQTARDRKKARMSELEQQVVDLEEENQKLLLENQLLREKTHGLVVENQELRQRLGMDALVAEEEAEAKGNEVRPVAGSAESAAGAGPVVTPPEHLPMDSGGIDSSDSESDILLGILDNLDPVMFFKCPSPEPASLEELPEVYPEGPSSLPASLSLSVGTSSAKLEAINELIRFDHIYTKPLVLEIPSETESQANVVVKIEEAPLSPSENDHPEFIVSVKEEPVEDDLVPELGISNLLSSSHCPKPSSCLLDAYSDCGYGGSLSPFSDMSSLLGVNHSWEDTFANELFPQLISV", "assay": "co-IP; 293T cells co-transfected with PCAF and XBP-1S vectors with or without a GCN5 plasmid; IP with anti-XBP-1 antibody, immunoblot with anti-PCAF or anti-XBP-1; bands quantified by densitometry, PCAF normalised to precipitated XBP-1S", "details": "partners not purified"}, "[2]": {"molecular_target": "T1, XBP-1S, the active isoform of X-box …", "assay": "cell-based or functional assay"}}}
{"binder": "general control nonderepressible 5 (GCN5) (enzyme, human, UniProt Q92830 1-837, looked up, No tag is named for this plasmid; precipitated and detected with anti-GCN5 (ab71965); also called GCN5 WT; source: 293T, transfected, in lysate) MAEPSQAPTPAPAAQPRPLQSPAPAPTPTPAPSPASAPIPTPTPAPAPAPAAAPAGSTGTGGPGVGSGGAGSGGDPARPGLSQQQRASQRKAQVRGLPRAKKLEKLGVFSACKANETCKCNGWKNPKPPTAPRMDLQQPAANLSELCRSCEHPLADHVSHLENVSEDEINRLLGMVVDVENLFMSVHKEEDTDTKQVYFYLFKLLRKCILQMTRPVVEGSLGSPPFEKPNIEQGVLNFVQYKFSHLAPRERQTMFELSKMFLLCLNYWKLETPAQFRQRSQAEDVATYKVNYTRWLCYCHVPQSCDSLPRYETTHVFGRSLLRSIFTVTRRQLLEKFRVEKDKLVPEKRTLILTHFPKFLSMLEEEIYGANSPIWESGFTMPPSEGTQLVPRPASVSAAVVPSTPIFSPSMGGGSNSSLSLDSAGAEPMPGEKRTLPENLTLEDAKRLRVMGDIPMELVNEVMLTITDPAAMLGPETSLLSANAARDETARLEERRGIIEFHVIGNSLTPKANRRVLLWLVGLQNVFSHQLPRMPKEYIARLVFDPKHKTLALIKDGRVIGGICFRMFPTQGFTEIVFCAVTSNEQVKGYGTHLMNHLKEYHIKHNILYFLTYADEYAIGYFKKQGFSKDIKVPKSRYLGYIKDYEGATLMECELNPRIPYTELSHIIKKQKEIIKKLIERKQAQIRKVYPGLSCFKEGVRQIPVESVPGIRETGWKPLGKEKGKELKDPDQLYTTLKNLLAQIKSHPSAWPFMEPVKKSEAPDYYEVIRFPIDLKTMTERLRSRYYVTRKLFVADLQRVIANCREYNPPDSEYCRCASALEKFFYFKLKEGGLIDK", "values": [{"measurement": "fold decrease of PCAF-XBP-1S binding with GCN5 overexpressed", "setting": "[1]", "value": 4, "unit": "fold"}, {"measurement": "fold decrease in XBP-1S-mediated luciferase expression from the 5×UPRE-Luc reporter in HEK293 cells with GCN5 overexpressed", "setting": "[2]", "value": "> 5", "unit": "fold"}]}
